Results reported in the supplement of paper PMC10567573.

B1: ZNF263 (parent)
chain: RTHTGEKPYKCTLCGENFSHRSNL

Variants of: B1
Assay: protein stability index of a GFP-peptide fusion (GPS, HEK-293T) (PSI 1-6); higher = more stable
Conditions: c terminus: a fixed tail appended
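Note: lentivirally expressed fusions sorted by FACS into six bins by GFP to DsRed ratio, PSI derived from sequencing read proportions per bin multiplied by bin number.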

Variant	protein stability index
CTHTGEKPYKCTLCGENFSHRSNL [R1C]	3.43
DTHTGEKPYKCTLCGENFSHRSNL [R1D]	1.93
ETHTGEKPYKCTLCGENFSHRSNL [R1E]	2.13
FTHTGEKPYKCTLCGENFSHRSNL [R1F]	2.41
GTHTGEKPYKCTLCGENFSHRSNL [R1G]	1.8
HTHTGEKPYKCTLCGENFSHRSNL [R1H]	3.08
ITHTGEKPYKCTLCGENFSHRSNL [R1I]	2.12
KTHTGEKPYKCTLCGENFSHRSNL [R1K]	2.22
LTHTGEKPYKCTLCGENFSHRSNL [R1L]	2.39
MTHTGEKPYKCTLCGENFSHRSNL [R1M]	1.38
NTHTGEKPYKCTLCGENFSHRSNL [R1N]	1.69
PTHTGEKPYKCTLCGENFSHRSNL [R1P]	1.98
QTHTGEKPYKCTLCGENFSHRSNL [R1Q]	1.79
STHTGEKPYKCTLCGENFSHRSNL [R1S]	1.89
TTHTGEKPYKCTLCGENFSHRSNL [R1T]	1.99
VTHTGEKPYKCTLCGENFSHRSNL [R1V]	2.27
WTHTGEKPYKCTLCGENFSHRSNL [R1W]	1.99
YTHTGEKPYKCTLCGENFSHRSNL [R1Y]	2.17
RAHTGEKPYKCTLCGENFSHRSNL [T2A]	2.02
RCHTGEKPYKCTLCGENFSHRSNL [T2C]	2.07
RDHTGEKPYKCTLCGENFSHRSNL [T2D]	2
REHTGEKPYKCTLCGENFSHRSNL [T2E]	1.76
RFHTGEKPYKCTLCGENFSHRSNL [T2F]	1.73
RGHTGEKPYKCTLCGENFSHRSNL [T2G]	1.74

Variant	protein stability index
RHHTGEKPYKCTLCGENFSHRSNL [T2H]	2.21
RIHTGEKPYKCTLCGENFSHRSNL [T2I]	1.98
RKHTGEKPYKCTLCGENFSHRSNL [T2K]	2.7
RLHTGEKPYKCTLCGENFSHRSNL [T2L]	2.17
RMHTGEKPYKCTLCGENFSHRSNL [T2M]	1.97
RNHTGEKPYKCTLCGENFSHRSNL [T2N]	2.28
RPHTGEKPYKCTLCGENFSHRSNL [T2P]	2.34
RQHTGEKPYKCTLCGENFSHRSNL [T2Q]	2.02
RRHTGEKPYKCTLCGENFSHRSNL [T2R]	3.06
RSHTGEKPYKCTLCGENFSHRSNL [T2S]	2.1
RVHTGEKPYKCTLCGENFSHRSNL [T2V]	2.52
RWHTGEKPYKCTLCGENFSHRSNL [T2W]	2.35
RYHTGEKPYKCTLCGENFSHRSNL [T2Y]	1.45
RTATGEKPYKCTLCGENFSHRSNL [H3A]	2.27
RTCTGEKPYKCTLCGENFSHRSNL [H3C]	1.61
RTDTGEKPYKCTLCGENFSHRSNL [H3D]	2.06
RTETGEKPYKCTLCGENFSHRSNL [H3E]	1.74
RTFTGEKPYKCTLCGENFSHRSNL [H3F]	2.15
RTGTGEKPYKCTLCGENFSHRSNL [H3G]	1.93
RTITGEKPYKCTLCGENFSHRSNL [H3I]	2.58
RTKTGEKPYKCTLCGENFSHRSNL [H3K]	2.05
RTLTGEKPYKCTLCGENFSHRSNL [H3L]	2.35
RTMTGEKPYKCTLCGENFSHRSNL [H3M]	2.19
RTNTGEKPYKCTLCGENFSHRSNL [H3N]	1.97

Variant	protein stability index
RTPTGEKPYKCTLCGENFSHRSNL [H3P]	2
RTQTGEKPYKCTLCGENFSHRSNL [H3Q]	2.31
RTRTGEKPYKCTLCGENFSHRSNL [H3R]	2.58
RTSTGEKPYKCTLCGENFSHRSNL [H3S]	2.18
RTTTGEKPYKCTLCGENFSHRSNL [H3T]	1.93
RTVTGEKPYKCTLCGENFSHRSNL [H3V]	1.85
RTWTGEKPYKCTLCGENFSHRSNL [H3W]	1.41
RTYTGEKPYKCTLCGENFSHRSNL [H3Y]	1.93
RTHAGEKPYKCTLCGENFSHRSNL [T4A]	2.47
RTHCGEKPYKCTLCGENFSHRSNL [T4C]	2.04
RTHDGEKPYKCTLCGENFSHRSNL [T4D]	1.87
RTHEGEKPYKCTLCGENFSHRSNL [T4E]	2.77
RTHFGEKPYKCTLCGENFSHRSNL [T4F]	2.05
RTHGGEKPYKCTLCGENFSHRSNL [T4G]	2.02
RTHHGEKPYKCTLCGENFSHRSNL [T4H]	1.91
RTHIGEKPYKCTLCGENFSHRSNL [T4I]	1.82
RTHKGEKPYKCTLCGENFSHRSNL [T4K]	2.43
RTHLGEKPYKCTLCGENFSHRSNL [T4L]	1.79
RTHMGEKPYKCTLCGENFSHRSNL [T4M]	2.1
RTHNGEKPYKCTLCGENFSHRSNL [T4N]	2.1
RTHPGEKPYKCTLCGENFSHRSNL [T4P]	2.34
RTHQGEKPYKCTLCGENFSHRSNL [T4Q]	2.01
RTHRGEKPYKCTLCGENFSHRSNL [T4R]	3.78
RTHSGEKPYKCTLCGENFSHRSNL [T4S]	2.03

Variant	protein stability index
RTHVGEKPYKCTLCGENFSHRSNL [T4V]	1.69
RTHWGEKPYKCTLCGENFSHRSNL [T4W]	1.75
RTHYGEKPYKCTLCGENFSHRSNL [T4Y]	2.43
RTHTAEKPYKCTLCGENFSHRSNL [G5A]	1.59
RTHTCEKPYKCTLCGENFSHRSNL [G5C]	3.14
RTHTDEKPYKCTLCGENFSHRSNL [G5D]	2.05
RTHTEEKPYKCTLCGENFSHRSNL [G5E]	2.46
RTHTFEKPYKCTLCGENFSHRSNL [G5F]	1.86
RTHTHEKPYKCTLCGENFSHRSNL [G5H]	2.22
RTHTIEKPYKCTLCGENFSHRSNL [G5I]	2.06
RTHTKEKPYKCTLCGENFSHRSNL [G5K]	2.37
RTHTLEKPYKCTLCGENFSHRSNL [G5L]	1.88
RTHTMEKPYKCTLCGENFSHRSNL [G5M]	2.13
RTHTNEKPYKCTLCGENFSHRSNL [G5N]	2.3
RTHTPEKPYKCTLCGENFSHRSNL [G5P]	1.88
RTHTQEKPYKCTLCGENFSHRSNL [G5Q]	2.46
RTHTREKPYKCTLCGENFSHRSNL [G5R]	2.2
RTHTSEKPYKCTLCGENFSHRSNL [G5S]	1.7
RTHTTEKPYKCTLCGENFSHRSNL [G5T]	2.24
RTHTVEKPYKCTLCGENFSHRSNL [G5V]	1.83
RTHTWEKPYKCTLCGENFSHRSNL [G5W]	2.4
RTHTYEKPYKCTLCGENFSHRSNL [G5Y]	1.63
